# T1: Sema3A(65) (human (by the filing's definition of …, UniProt Q14563 21-555, limits assumed))
# T1 construct: also called recombinant pure Sema3a protein; 65 kDa furin cleavage
# T1 sequence: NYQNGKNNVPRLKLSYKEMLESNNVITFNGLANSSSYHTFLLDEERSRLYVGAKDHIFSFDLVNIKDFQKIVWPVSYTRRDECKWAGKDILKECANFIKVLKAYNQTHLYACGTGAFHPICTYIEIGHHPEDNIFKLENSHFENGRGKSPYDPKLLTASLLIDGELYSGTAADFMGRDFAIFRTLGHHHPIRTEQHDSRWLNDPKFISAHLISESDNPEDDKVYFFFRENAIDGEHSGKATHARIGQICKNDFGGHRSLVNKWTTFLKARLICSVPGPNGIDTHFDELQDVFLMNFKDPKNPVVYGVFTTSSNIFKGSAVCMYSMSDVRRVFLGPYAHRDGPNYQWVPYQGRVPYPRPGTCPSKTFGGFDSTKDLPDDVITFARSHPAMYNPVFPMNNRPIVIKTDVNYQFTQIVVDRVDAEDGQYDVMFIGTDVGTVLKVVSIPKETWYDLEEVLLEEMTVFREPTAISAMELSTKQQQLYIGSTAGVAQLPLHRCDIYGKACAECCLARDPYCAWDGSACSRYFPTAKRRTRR
# B1: Fab L4B8 (Fab, V domains shown)
# VH: EVQLLESGGGLVQPGGSLRLPCAASGFTVGLYNINWVRQAPGKGLAWVSTISGSGLNTYYSDPVKGRFTISRDNSKNTLYLQMNSLRAEDTAVYYCARDEDTYAFNWGQGTLVTVSS
# VL: DIVLTQSPGTLSLSPGERATLSCRASQSVSSSYLAWYQQKPGQAPRLLIYGASTRAPGIPDRFSGSGSGTDFTLTISRLEPEDFAVYYCHQRGSGDTFGPGTKVEIK
# notes: C-terminal His tag on the Fd fragment
# B2: Fab L4E6 (Fab, V domains shown)
# VH: EVQLLESGGGLVQPGGSLRLSCAASGFTFSNFVMNWVRQAPGKGLEWVSRINTDGTSTNYADSVTGRFTISRDNSKNTLYLQMNSLRAEDTAVYYCARDYPLRRLMYYYYGMDVWGQGTLVTVSS
# VL: DIVLTQSPGTLSLSPGERATLSCRASQTISSNLAWYQQKPGQAPRLLIYGASSRATGIPDRFSGSGSGTDFTLTISRLEPEDFAVYYCQQYSWSPRVYSFGQGTKLEIK
# notes: as for B1
# Target: T1, Sema3A(65)
# Assay: ELISA on coated antigen (5 µg/ml), Fab in 2 fold dilutions from 1 µM, detection with HRP goat anti human H+L
# Method: FIGS. 1A-B are graphs illustrating purification and ELISA binding evaluation of anti Sema3a isolated Fabs for estimated Kd values. The analyzed antibody was added in 2 fold dilution series starting at 1 μM to the antigen (Sema3A) coated wells (5 μg/ml). Bound antibodies were detected with horseradish peroxidase (HRP)-conjugated goat anti human H+L secondary antibodies. Fab 3H4 (FIG. 1A), L4B8 and L4E6 (FIG. 1B) are presented.
binder,measurement,value
B1,EC50 (read off the curve),~100 nM
B2,EC50 (read off the curve),~200 nM

# Reference: patent US20220251193A1 (RAMOT AT TEL AVIV UNIVERSITY, published 2022)
